Laboratory results: paper PMC10718521, “Complexity of αvβ6-integrin targeting RGD peptide trimers: emergence of non-specific binding by synergistic interaction” (RSC Medicinal Chemistry, 2023)
Read-outs that look alike come from different tables or passages of the source. Where a SMILES comes first, the peptide text is derived from it. [ ]: non-standard residue; d: D form. The star is where a group is joined. NMeK = CN[C@@H](CCCCN)C(=O)O; Pent4ynoyl = C#CCCC(=O)*

Legend:
αvβ6-integrin [1] = target: T1, αvβ6-integrin (Homo sapiens, UniProt P06756+P18564); design: method as in PMID 34559266; conditions: ELISA; read-out: IC50 (95% confidence interval) αvβ6; cited from earlier work
T1 sequence (P06756 31-992 limits assumed): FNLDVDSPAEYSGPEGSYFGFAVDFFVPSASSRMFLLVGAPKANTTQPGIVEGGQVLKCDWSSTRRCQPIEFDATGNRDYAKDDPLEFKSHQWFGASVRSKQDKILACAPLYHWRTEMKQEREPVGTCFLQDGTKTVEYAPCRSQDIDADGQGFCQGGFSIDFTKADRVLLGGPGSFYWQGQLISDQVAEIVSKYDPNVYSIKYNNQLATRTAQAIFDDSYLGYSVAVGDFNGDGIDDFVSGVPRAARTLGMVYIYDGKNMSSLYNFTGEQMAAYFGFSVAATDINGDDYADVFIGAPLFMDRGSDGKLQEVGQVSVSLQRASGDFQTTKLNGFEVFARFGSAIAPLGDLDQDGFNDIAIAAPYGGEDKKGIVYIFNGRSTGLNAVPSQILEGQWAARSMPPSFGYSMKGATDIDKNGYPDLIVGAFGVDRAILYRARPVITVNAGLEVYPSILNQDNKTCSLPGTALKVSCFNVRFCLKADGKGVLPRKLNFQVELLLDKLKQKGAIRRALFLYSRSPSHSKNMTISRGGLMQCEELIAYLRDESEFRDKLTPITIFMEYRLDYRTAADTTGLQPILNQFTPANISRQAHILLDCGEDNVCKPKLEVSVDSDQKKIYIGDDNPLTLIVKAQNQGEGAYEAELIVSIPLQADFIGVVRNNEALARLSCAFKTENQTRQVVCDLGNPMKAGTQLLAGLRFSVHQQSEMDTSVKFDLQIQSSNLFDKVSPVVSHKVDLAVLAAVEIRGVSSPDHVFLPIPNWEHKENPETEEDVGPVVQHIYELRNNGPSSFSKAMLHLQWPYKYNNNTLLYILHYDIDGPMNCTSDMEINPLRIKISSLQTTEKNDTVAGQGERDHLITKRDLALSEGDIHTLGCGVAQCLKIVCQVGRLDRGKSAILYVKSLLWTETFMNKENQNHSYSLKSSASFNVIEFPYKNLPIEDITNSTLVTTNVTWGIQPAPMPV
T1 sequence (P18564 22-707 limits assumed): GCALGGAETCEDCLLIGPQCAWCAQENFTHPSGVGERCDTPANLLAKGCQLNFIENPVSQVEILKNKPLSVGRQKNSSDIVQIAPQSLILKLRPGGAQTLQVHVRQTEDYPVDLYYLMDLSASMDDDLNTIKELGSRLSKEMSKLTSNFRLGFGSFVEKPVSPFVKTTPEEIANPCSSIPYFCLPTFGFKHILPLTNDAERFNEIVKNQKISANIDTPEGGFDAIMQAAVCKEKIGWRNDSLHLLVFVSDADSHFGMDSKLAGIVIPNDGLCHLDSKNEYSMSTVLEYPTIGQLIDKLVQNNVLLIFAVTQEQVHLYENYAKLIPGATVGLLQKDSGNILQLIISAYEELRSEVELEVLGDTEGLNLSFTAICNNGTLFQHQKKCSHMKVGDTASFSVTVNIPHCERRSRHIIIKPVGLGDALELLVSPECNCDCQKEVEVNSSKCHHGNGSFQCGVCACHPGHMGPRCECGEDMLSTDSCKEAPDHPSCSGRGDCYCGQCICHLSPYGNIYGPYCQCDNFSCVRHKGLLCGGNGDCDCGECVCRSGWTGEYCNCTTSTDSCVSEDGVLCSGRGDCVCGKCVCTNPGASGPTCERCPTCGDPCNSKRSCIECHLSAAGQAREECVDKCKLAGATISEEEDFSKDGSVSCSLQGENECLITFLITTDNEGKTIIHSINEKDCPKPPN

α5β1-integrin [2] = target: T2, α5β1-integrin (Homo sapiens, UniProt P05556+P08648); design: method as in PMID 34559266; conditions: ELISA; read-out: IC50 (95% confidence interval) α5β1; cited from earlier work
T2 sequence (P08648 42-995 limits assumed): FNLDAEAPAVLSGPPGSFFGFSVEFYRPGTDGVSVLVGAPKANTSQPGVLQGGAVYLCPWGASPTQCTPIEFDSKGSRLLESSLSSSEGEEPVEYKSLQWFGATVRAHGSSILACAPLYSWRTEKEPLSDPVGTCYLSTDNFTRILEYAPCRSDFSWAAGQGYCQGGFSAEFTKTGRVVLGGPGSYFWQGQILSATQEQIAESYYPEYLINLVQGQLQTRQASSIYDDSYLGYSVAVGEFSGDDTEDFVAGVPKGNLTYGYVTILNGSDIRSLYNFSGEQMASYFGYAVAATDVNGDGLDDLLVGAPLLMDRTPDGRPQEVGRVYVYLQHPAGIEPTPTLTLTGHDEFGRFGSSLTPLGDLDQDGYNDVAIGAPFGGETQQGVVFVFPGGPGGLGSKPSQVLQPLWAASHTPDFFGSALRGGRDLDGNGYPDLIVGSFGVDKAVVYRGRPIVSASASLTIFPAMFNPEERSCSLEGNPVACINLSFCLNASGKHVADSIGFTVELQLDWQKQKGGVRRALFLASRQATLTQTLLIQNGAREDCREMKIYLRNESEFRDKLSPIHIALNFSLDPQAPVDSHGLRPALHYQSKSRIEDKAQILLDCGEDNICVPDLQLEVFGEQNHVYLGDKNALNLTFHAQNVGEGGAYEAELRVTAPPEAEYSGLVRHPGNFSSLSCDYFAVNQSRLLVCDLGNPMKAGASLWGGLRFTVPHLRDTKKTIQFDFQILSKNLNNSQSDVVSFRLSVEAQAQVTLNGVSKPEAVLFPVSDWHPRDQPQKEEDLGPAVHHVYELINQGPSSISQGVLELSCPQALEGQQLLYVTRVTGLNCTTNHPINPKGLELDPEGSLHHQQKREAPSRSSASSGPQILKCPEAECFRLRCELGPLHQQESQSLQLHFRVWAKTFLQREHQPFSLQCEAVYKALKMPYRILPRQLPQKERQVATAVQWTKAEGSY
T2 sequence (P05556 21-728 limits assumed): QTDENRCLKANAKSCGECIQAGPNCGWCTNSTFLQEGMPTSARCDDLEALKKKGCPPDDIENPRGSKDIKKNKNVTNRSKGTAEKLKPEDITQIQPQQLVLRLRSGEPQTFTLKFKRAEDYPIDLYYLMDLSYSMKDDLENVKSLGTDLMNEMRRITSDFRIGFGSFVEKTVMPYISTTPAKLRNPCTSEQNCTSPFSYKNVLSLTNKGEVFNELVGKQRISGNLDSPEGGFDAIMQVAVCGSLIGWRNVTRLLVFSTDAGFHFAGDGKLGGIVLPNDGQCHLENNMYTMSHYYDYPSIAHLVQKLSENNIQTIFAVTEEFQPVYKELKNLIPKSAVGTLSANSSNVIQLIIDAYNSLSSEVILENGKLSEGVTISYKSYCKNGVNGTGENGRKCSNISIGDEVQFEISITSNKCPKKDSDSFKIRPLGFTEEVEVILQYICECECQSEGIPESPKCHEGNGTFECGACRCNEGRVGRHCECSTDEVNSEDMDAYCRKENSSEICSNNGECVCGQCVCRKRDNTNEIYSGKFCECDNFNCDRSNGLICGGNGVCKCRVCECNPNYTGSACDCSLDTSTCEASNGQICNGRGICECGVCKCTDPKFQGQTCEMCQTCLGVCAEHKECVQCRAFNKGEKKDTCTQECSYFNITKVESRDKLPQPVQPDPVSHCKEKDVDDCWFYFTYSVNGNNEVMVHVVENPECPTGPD

αvβ3-integrin [3] = target: T3, αvβ3-integrin (Homo sapiens, UniProt P05106+P06756); design: method as in PMID 34559266; conditions: ELISA; read-out: IC50 (95% confidence interval) αvβ3; cited from earlier work
αvβ8-integrin [4] = target: T4, αvβ8-integrin (Homo sapiens, UniProt P06756+P26012); design: method as in PMID 34559266; conditions: ELISA; read-out: IC50 (95% confidence interval) αvβ8; cited from earlier work
T4 sequence (P06756 31-992 limits assumed): as the sequence (P06756 31-992 limits assumed) above
T4 sequence (P26012 43-684 limits assumed): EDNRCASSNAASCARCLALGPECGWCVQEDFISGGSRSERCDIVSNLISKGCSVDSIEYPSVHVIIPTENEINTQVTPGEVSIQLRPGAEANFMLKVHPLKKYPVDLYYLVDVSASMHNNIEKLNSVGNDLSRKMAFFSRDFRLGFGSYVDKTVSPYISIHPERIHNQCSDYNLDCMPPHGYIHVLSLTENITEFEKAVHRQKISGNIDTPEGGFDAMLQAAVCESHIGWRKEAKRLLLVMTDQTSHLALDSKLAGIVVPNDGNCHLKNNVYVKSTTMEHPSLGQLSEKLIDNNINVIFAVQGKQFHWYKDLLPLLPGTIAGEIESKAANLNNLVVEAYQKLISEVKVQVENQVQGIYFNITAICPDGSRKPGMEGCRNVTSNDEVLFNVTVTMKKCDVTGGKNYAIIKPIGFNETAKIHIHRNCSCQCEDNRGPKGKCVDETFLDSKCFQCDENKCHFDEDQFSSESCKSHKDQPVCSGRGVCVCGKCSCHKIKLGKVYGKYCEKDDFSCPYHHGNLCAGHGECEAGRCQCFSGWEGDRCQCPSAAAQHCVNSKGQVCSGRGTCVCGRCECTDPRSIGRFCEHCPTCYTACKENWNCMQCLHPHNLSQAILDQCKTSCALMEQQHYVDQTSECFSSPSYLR

αvβ3-integrin [5] = target: T3, αvβ3-integrin; experiment: ELISA on immobilized integrins, αvβ3; type: binding; conditions: read-out: IC50 (95% confidence interval) αvβ3
Method: (§1) The integrin affinities of the monomers were determined using an established ELISA protocol,[36] and expressed as 50% inhibitory concentrations (IC50, Table 1).
(§2) Unless otherwise noted, the materials and the instrumentation used (analytical and preparative HPLC, ESI-MS, gamma counter, centrifuge), and the experimental procedures (^68Ga radiolabeling and radio-TLC for quality control, determination of log D7.4, cultivation of H2009 human lung adenocarcinoma cells, generation of tumor xenografts in CB17 SCID mice, small-animal PET, and biodistribution) were described before.[19] All animal experiments have been carried out according to applicable law and institutional guidelines of Technical University of Munich, and were approved by the responsible local authority (Regierung von Oberbayern). The H2009 cells were regularly authenticated and tested for mycoplasma contamination. The affinities of the pentynoic amide functionalized peptides were determined employing a well-established ELISA protocol on immobilized integrins.[36] TRAP-triazide,[38]FF (previously termed AvB6),[32] and YY (also referred to as Tyr2-alkyne)[33] were synthesized as described previously. […]

α5β1-integrin [6] = target: T2, α5β1-integrin; experiment: ELISA on immobilized integrins, α5β1; type: binding; conditions: read-out: IC50 (95% confidence interval) α5β1
Method: as §1, §2

αvβ8-integrin [7] = target: T4, αvβ8-integrin; experiment: ELISA on immobilized integrins, αvβ8; type: binding; conditions: read-out: IC50 (95% confidence interval) αvβ8
Method: as §1, §2

αvβ6-integrin [8] = target: T1, αvβ6-integrin; experiment: ELISA on immobilized integrins, αvβ6; type: binding; conditions: for IC50: ELISA, read-out: IC50 (95% confidence interval) αvβ6; for αvβ6-selectivity over α5β1 / αvβ6-selectivity over αvβ3 / αvβ6-selectivity over αvβ8: IC50-based
Method: as §1
(§3) Unless otherwise noted, the materials and the instrumentation used (analytical and preparative HPLC, ESI-MS, gamma counter, centrifuge), and the experimental procedures (^68Ga radiolabeling and radio-TLC for quality control, determination of log D7.4, cultivation of H2009 human lung adenocarcinoma cells, generation of tumor xenografts in CB17 SCID mice, small-animal PET, and biodistribution) were described before.[19] All animal experiments have been carried out according to applicable law and institutional guidelines of Technical University of Munich, and were approved by the responsible local authority (Regierung von Oberbayern). The H2009 cells were regularly authenticated and tested for mycoplasma contamination. The affinities of the pentynoic amide functionalized peptides were determined employing a well-established ELISA protocol on immobilized integrins.[36] TRAP-triazide,[38]FF (previously termed AvB6),[32] and YY (also referred to as Tyr2-alkyne)[33] were synthesized as described previously. RP-HPLC for assessment of compound polarity was done on a 150 × 4.6 mm ReproSil-Pur 120 C18-AQ 5 μm column, with a flow of 0.75 mL min^−1 and a gradient of 10–50% MeCN in water, both containing 0.1% trifluoroacetic acid, within 15 min. The required ^natGa-complexes of the peptide trimers were synthesized by reaction with equimolar amounts of aq. GaCl3 as described.[19]

[9] = type: physicochemical; conditions: pH 7.4
Method: The trimers were labeled with ^68Ga for biodistribution and small-animal PET experiments employing a fully automated method.[39] Non-radioactive reference compounds were obtained by complexation of equimolar amounts of ^natGa^3+ in form of the aq. chloride solution.[39] The polarity of the ^68Ga or ^natGa^3+ containing conjugates, respectively, was assessed by two established proxies, namely the n-octanol/water distribution coefficient at pH 7.4, log D7.4, and the retention time tR on a reverse-phase HPLC column with a suitable liquid-phase gradient (10–50% acetonitrile in water with 0.1% trifluoroacetic acid) (see Fig. 2a). […] A measurable decrease of the log D7.4 was only observed for ≥3 Tyr. […]
as §3

in vivo = experiment: in vivo; design: species or system mice; conditions: CB17 SCID, mouse, total radioactivity
Source text: The biodistribution of all ^68Ga-labeled peptide trimers was investigated in severe combined immunodeficiency (SCID) mice bearing subcutaneous xenografts of the αvβ6-integrin expressing human lung adenocarcinoma cell line H2009 on their right shoulders.
as §3

| IC50 (αvβ3-integrin [5]) | IC50 (α5β1-integrin [6]) | IC50 (αvβ8-integrin [7]) | IC50 (αvβ6-integrin [8]) | αvβ6-selectivity over α5β1 (αvβ6-integrin [8]) | αvβ6-selectivity over αvβ3 (αvβ6-integrin [8]) | αvβ6-selectivity over αvβ8 (αvβ6-integrin [8]) | Compound | IC50 (αvβ6-integrin [1]) | IC50 (α5β1-integrin [2]) | IC50 (αvβ3-integrin [3]) | IC50 (αvβ8-integrin [4]) | logD [9] | tissue uptake at 1.5 h (in vivo; Adrenals uptake) | tissue uptake at 1.5 h (in vivo; Blood uptake) | tissue uptake at 1.5 h (in vivo; Heart (myocard) uptake) | tissue uptake at 1.5 h (in vivo; Kidneys uptake) | tissue uptake at 1.5 h (in vivo; Large intestine (empty) uptake) | tissue uptake at 1.5 h (in vivo; Liver uptake) | tissue uptake at 1.5 h (in vivo; Lung uptake) | tissue uptake at 1.5 h (in vivo; Muscle uptake) | other results |
| --- | --- | --- | --- | --- | --- | --- | --- | --- | --- | --- | --- | --- | --- | --- | --- | --- | --- | --- | --- | --- | --- |
|  |  |  |  |  |  |  | YY: cyclo[YRGDLAYp(NMe)K] bearing 4-pentynoic amide on the Lys side chain; alkyne-functionalized peptide monomer (cyclo(YRGDLAY[dP][NMeK](Pent4ynoyl)); SMILES C#CCCC(=O)NCCCC[C@H]1C(=O)N[C@@H](Cc2ccc(O)cc2)C(=O)N[C@@H](CCCNC(=N)N)C(=O)NCC(=O)N[C@@H](CC(=O)O)C(=O)N[C@@H](CC(C)C)C(=O)N[C@@H](C)C(=O)N[C@@H](Cc2ccc(O)cc2)C(=O)N2CCC[C@@H]2C(=O)N1C) | 0.84 nM | 150 nM | 219 nM | 26 nM |  |  |  |  |  |  |  |  |  |  |
| 630 nM | 114 nM | 23 nM | 3.3 nM | 35 | 190 | 6.9 | C#CCCC(=O)NCCCC[C@H]1C(=O)N[C@@H](Cc2ccc(O)cc2)C(=O)N[C@@H](CCCNC(=N)N)C(=O)NCC(=O)N[C@@H](CC(=O)O)C(=O)N[C@@H](CC(C)C)C(=O)N[C@@H](C)C(=O)N[C@@H](Cc2ccccc2)C(=O)N2CCC[C@@H]2C(=O)N1C [YF] (cyclo(YRGDLAF[dP][NMeK](Pent4ynoyl))) |  |  |  |  |  |  |  |  |  |  |  |  |  |  |
| 732 nM | 177 nM | 37 nM | 2.8 nM | 63 | 261 | 13.2 | C#CCCC(=O)NCCCC[C@H]1C(=O)N[C@@H](Cc2ccccc2)C(=O)N[C@@H](CCCNC(=N)N)C(=O)NCC(=O)N[C@@H](CC(=O)O)C(=O)N[C@@H](CC(C)C)C(=O)N[C@@H](C)C(=O)N[C@@H](Cc2ccc(O)cc2)C(=O)N2CCC[C@@H]2C(=O)N1C [FY] (cyclo(FRGDLAY[dP][NMeK](Pent4ynoyl))) |  |  |  |  |  |  |  |  |  |  |  |  |  |  |
|  |  |  |  |  |  |  | FF: cyclo[FRGDLAFp(NMe)K] bearing 4-pentynoic amide on the Lys side chain; alkyne-functionalized peptide monomer | 0.17 nM | 226 nM | 424 nM | 32 nM |  |  |  |  |  |  |  |  |  |  |
|  |  |  |  |  |  |  | CC(C)C[C@@H]1NC(=O)[C@H](CC(=O)O)NC(=O)CNC(=O)[C@H](CCCNC(=N)N)NC(=O)[C@H](Cc2ccc(O)cc2)NC(=O)[C@H](CCCCNC(=O)CCc2cn(CCCNC(=O)CCP(=O)(O)CN3CCN(CP(=O)(O)CCC(=O)NCCCn4cc(CCC(=O)NCCCC[C@H]5C(=O)N[C@@H](Cc6ccc(O)cc6)C(=O)N[C@@H](CCCNC(=N)N)C(=O)NCC(=O)N[C@@H](CC(=O)O)C(=O)N[C@@H](CC(C)C)C(=O)N[C@@H](C)C(=O)N[C@@H](Cc6ccc(O)cc6)C(=O)N6CCC[C@@H]6C(=O)N5C)nn4)CCN(CP(=O)(O)CCC(=O)NCCCn4cc(CCC(=O)NCCCC[C@H]5C(=O)N[C@@H](Cc6ccc(O)cc6)C(=O)N[C@@H](CCCNC(=N)N)C(=O)NCC(=O)N[C@@H](CC(=O)O)C(=O)N[C@@H](CC(C)C)C(=O)N[C@@H](C)C(=O)N[C@@H](Cc6ccc(O)cc6)C(=O)N6CCC[C@@H]6C(=O)N5C)nn4)CC3)nn2)N(C)C(=O)[C@H]2CCCN2C(=O)[C@H](Cc2ccc(O)cc2)NC(=O)[C@H](C)NC1=O (68Ga complex, metal not drawn) [Y6] |  |  |  |  | -2.1 ± 0.1 | 0.5 ± 0.11 %ID/g | 1.03 ± 0.21 %ID/g | 0.59 ± 0.11 %ID/g | 95.7 ± 12.6 %ID/g | 4.36 ± 0.77 %ID/g | 0.73 ± 0.11 %ID/g | 4.47 ± 1.12 %ID/g | 0.68 ± 0.18 %ID/g | tissue uptake at 1.5 h (in vivo; Pancreas uptake): 0.27 ± 0.04 %ID/g; tissue uptake at 1.5 h (in vivo; Small intestine (empty) uptake): 2.72 ± 1.15 %ID/g; tissue uptake at 1.5 h (in vivo; Spleen uptake): 3.91 ± 0.91 %ID/g; tissue uptake at 1.5 h (in vivo; Stomach (empty) uptake): 6.24 ± 1.24 %ID/g; tissue uptake at 1.5 h (in vivo; Tumor H2009 uptake): 7.52 ± 1.21 %ID/g |
|  |  |  |  |  |  |  | CC(C)C[C@@H]1NC(=O)[C@H](CC(=O)O)NC(=O)CNC(=O)[C@H](CCCNC(=N)N)NC(=O)[C@H](Cc2ccc(O)cc2)NC(=O)[C@H](CCCCNC(=O)CCc2cn(CCCNC(=O)CCP(=O)(O)CN3CCN(CP(=O)(O)CCC(=O)NCCCn4cc(CCC(=O)NCCCC[C@H]5C(=O)N[C@@H](Cc6ccc(O)cc6)C(=O)N[C@@H](CCCNC(=N)N)C(=O)NCC(=O)N[C@@H](CC(=O)O)C(=O)N[C@@H](CC(C)C)C(=O)N[C@@H](C)C(=O)N[C@@H](Cc6ccccc6)C(=O)N6CCC[C@@H]6C(=O)N5C)nn4)CCN(CP(=O)(O)CCC(=O)NCCCn4cc(CCC(=O)NCCCC[C@H]5C(=O)N[C@@H](Cc6ccc(O)cc6)C(=O)N[C@@H](CCCNC(=N)N)C(=O)NCC(=O)N[C@@H](CC(=O)O)C(=O)N[C@@H](CC(C)C)C(=O)N[C@@H](C)C(=O)N[C@@H](Cc6ccccc6)C(=O)N6CCC[C@@H]6C(=O)N5C)nn4)CC3)nn2)N(C)C(=O)[C@H]2CCCN2C(=O)[C@H](Cc2ccccc2)NC(=O)[C@H](C)NC1=O (68Ga complex, metal not drawn) [Y3Y] |  |  |  |  | -1.7 ± 0.1 | 0.81 ± 0.41 %ID/g | 1.13 ± 0.25 %ID/g | 0.66 ± 0.16 %ID/g | 72.6 ± 5.25 %ID/g | 3.94 ± 1.85 %ID/g | 1.23 ± 0.19 %ID/g | 4.96 ± 0.48 %ID/g | 0.51 ± 0.11 %ID/g | tissue uptake at 1.5 h (in vivo; Pancreas uptake): 0.33 ± 0.07 %ID/g; tissue uptake at 1.5 h (in vivo; Small intestine (empty) uptake): 1.69 ± 0.2 %ID/g; tissue uptake at 1.5 h (in vivo; Spleen uptake): 3.82 ± 0.82 %ID/g; tissue uptake at 1.5 h (in vivo; Stomach (empty) uptake): 4.03 ± 1.36 %ID/g; tissue uptake at 1.5 h (in vivo; Tumor H2009 uptake): 5.92 ± 2.07 %ID/g; tissue to tissue ratio at 1.5 h (in vivo; tumor/organ ratio Adrenals): 6.7 ± 3; tissue to tissue ratio at 1.5 h (in vivo; tumor/organ ratio Blood): 4.9 ± 0.5; tissue to tissue ratio at 1.5 h (in vivo; tumor/organ ratio Heart (myocard)): 8.5 ± 1.1; tissue to tissue ratio at 1.5 h (in vivo; tumor/organ ratio Kidneys): 0.1; tissue to tissue ratio at 1.5 h (in vivo; tumor/organ ratio Large intestine (empty)): 1.8 ± 1.1; tissue to tissue ratio at 1.5 h (in vivo; tumor/organ ratio Liver): 4.4 ± 0.7; tissue to tissue ratio at 1.5 h (in vivo; tumor/organ ratio Lung): 1 ± 0.2; tissue to tissue ratio at 1.5 h (in vivo; tumor/organ ratio Muscle): 10.7 ± 1.1; tissue to tissue ratio at 1.5 h (in vivo; tumor/organ ratio Pancreas): 17 ± 1.4; tissue to tissue ratio at 1.5 h (in vivo; tumor/organ ratio Small intestine (empty)): 3.2 ± 0.6; tissue to tissue ratio at 1.5 h (in vivo; tumor/organ ratio Spleen): 1.4 ± 0.2; tissue to tissue ratio at 1.5 h (in vivo; tumor/organ ratio Stomach (empty)): 1.5 ± 0.7 |
